{"source": "patent CN105524166A", "about": "(ATTOBIO (SUZHOU) CO LTD, dated 2016)", "binders": {"B1": {"name": "HPV18E7单克隆抗体MAB-F2 (antibody, V domains shown)", "VH": "LVQSGGGSVKPGGSLKLSCAASGFTFNRYDMSWFRQSPEKRLEWVAEIRNDGSKTHYSDTVTGRFTISRDNAKNTLYLEMSSLRSEDTAMYYCTRDSYGTVFAYWGQGTLVTVSA", "VL": "not shown", "notes": "also called mAb MAB-F2; anti-HPV18E7单抗MAB-F2"}}, "key": {"[1]": {"molecular_target": "T1, His-HPV16E7融合蛋白 (human papillomavirus type 16 (HPV16), UniProt P03129 2-98)", "T1 construct": "Recombinant His fusion protein coated on ELISA plates; also called HPV16E7重组蛋白; His-HPV16E7重组蛋白; not shown: His tag", "T1 sequence": "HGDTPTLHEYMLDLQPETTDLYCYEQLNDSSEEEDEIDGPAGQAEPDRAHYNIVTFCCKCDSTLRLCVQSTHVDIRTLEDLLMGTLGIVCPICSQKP", "assay": "indirect ELISA, coated His-HPV16E7"}, "[2]": {"molecular_target": "T2, CaSki细胞表达的HPV16E7蛋白 (human papillomavirus type 16 (HPV16), UniProt P03129 2-98)", "T2 construct": "Endogenous, intracellular E7 of CaSki cells, tested in fixed, permeabilised cells (ICC); also called 表达HPV16E7的CaSki细胞; HPV16E7阳性细胞CaSki", "T2 sequence": "T1 sequence", "assay": "immunocytochemistry on fixed, permeabilised CaSki cells"}, "[3]": {"molecular_target": "T3, His-HPV18E7融合蛋白 (human papillomavirus type 18 (HPV18), UniProt P06788 1-105)", "T3 construct": "Recombinant His fusion protein coated on ELISA plates; also called HPV18E7重组蛋白; His-HPV18E7重组蛋白; not shown: His tag", "T3 chain": "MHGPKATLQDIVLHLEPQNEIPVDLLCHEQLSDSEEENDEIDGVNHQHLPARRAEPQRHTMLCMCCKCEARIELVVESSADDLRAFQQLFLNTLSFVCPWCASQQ", "assay": "ELISA by the method of Beatty et al.: His-HPV18E7 coated at 8, 2, 0.5 and 0.125 μg/ml, MAB-F2 in two-fold dilutions from 8 μg/ml, mean of six K values"}}, "data": [{"binder": "B1", "values": [{"measurement": "binding result", "setting": "[1]", "value": "no binding (tested: MAB-F2 1μg/ml; antigen coated at 2μg/ml)"}, {"measurement": "binding result", "setting": "[2]", "value": "no binding (tested: MAB-F2 5μg/ml)"}, {"measurement": "Kd", "setting": "[3]", "value": 2.67, "unit": "nM"}]}]}
